# Source: the RNAGym collection of RNA variant scans (doi:10.1073/pnas.2313332121)
# For some assays here: This sample holds only a part of the variants without activity.
# B1: TPR t1 (parent)
# chain: GACCAAUCUGCCCUCAGAGCUCGAGAACAUCUUCGGAUGCAGAGGAGGCAGGCUUCGGUGGCGCGAUAGCGCCAACGUCCUCAACCUCCAAUGCAUCCCACCACAUGAUGAUGCCUGAAGAGCCUUGGUUUUUUG
# B2: TPR 5TU (parent)
# chain: GGAUCUUCUCGAUCUAACAAAAAAGACAAAUCUGCCACAAAGCUUGAGAGCAUCUUCGGAUGCAGAGGCGGCAGCCUUCGGUGGCGCGAUAGCGCCAACGUUCUCAACUAUGACACGCAAAACGCGUGCUCCGUUGAAUGGAGUUUAUCAUG
# Variants of: B1
# Experiment: polymerase ribozyme fitness, log enrichment relative to wild type (log ratio); higher = more active; in vitro selection for triplet polymerase activity
# Summary of the method: (§1)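 Mutant libraries of each subunit of a heterodimeric triplet polymerase ribozyme were built by PCR and transcribed. Each library went through one round of in vitro selection in triplicate: annealing with biotinylated primer, partner subunit and triplets, frozen incubation at −7 °C, gel excision of extended constructs, streptavidin-bead capture and RT-PCR. Input and output libraries were Illumina-sequenced; only genotypes with ≥10 input reads and ≥1 read per output were kept. Fitness is log2(genotype enrichment/wild-type enrichment), using inverse-variance-weighted replicate averages.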
row,Variant,polymerase ribozyme fitness (log ratio)
1,U129C U134G,1.11
2,G128C U133A,-2.85
3,G127U U129A U130C,-1.27
4,U134G,0.625
5,U134C,-0.304
6,U134A,0.465
7,U131G U133A,-0.289
8,G127U,-0.639
9,U132A,-0.0436
10,U132C,-0.134
11,U132G,-2.28
12,G128A U133A,-3.85
13,G135A,-0.639
14,G135U,-0.939
15,G135C,0.446
16,U132G U133A,0.0135
17,U129C U131G,0.298
18,U129C U131A,-0.49
19,U129C U130A,-0.859
20,U129C U132A,-0.43
21,U129A U130C,-0.653
22,U129C U133G,0.0769
23,U129A U132C,-0.64
24,G128A,-1.65
25,G128U,-1.57
26,G128C,-2.23
27,U129G U133A,-2

# Variants of: B2
# Experiment: as above
# Summary of the method: as §1
row,Variant,polymerase ribozyme fitness (log ratio)
1,A3G A22C,-0.593
2,A3C A16U A26U U55A,≤ -4.2
3,A3U A20C C54U G86C C125U,-4.19
4,A3G A16U C18U A22C G25C C43U A49C G68C A106C U145C,≤ -4.2
5,A3C U31G U53A U55A C96A A115G G126A A142C,≤ -4.2
6,A3C C5G G92U U134C U135A,-1.39
7,A3U A30G A52U C79G G88U C95U A115G A120C G133U,-4.13
8,A3C U6G A60G G83C,-3.62
9,A3C U13C C51U C57U C87U C96G U139C,≤ -4.2
10,A3G A19U C27A U82A C93G U111G,≤ -4.2
11,A3C A37U A40C U44A C132A,≤ -4.2
12,A3C G11U C36G A39U A91U C114U U127G U134G G140C,≤ -4.2
13,A3U C8G C51A A89G U90G A120U G133C,≤ -4.2
14,A3U C27G C95U A150G,≤ -4.2
15,A3G A23C A26G U45A A52G G59A G80C A106C,≤ -4.2
16,A3C U15A C85U,0.611
17,A3G C5G U7A G50U G86A C93U C96U,-0.354
18,A3G U13G A23C C43A C87U,≤ -4.2
19,A3G U6C A64U G70C G86A U90G C93U G133C C149U,≤ -4.2
20,A3U A73G C79G C93A C116U G117U A138U,≤ -4.2
21,A3G A19U G92U A113C,-3.43
22,A3G A21C A37C C63U G74C C87G G128C G141A,≤ -4.2
23,A3U C10U U15C,-1.19
24,A3G G42A A49C C63U C69G C85G A115C,≤ -4.2

row,Variant,polymerase ribozyme fitness (log ratio)
1,A3U A89C C95A A110C,≤ -4.2
2,A3U A47C,-0.9
3,A3G C8G C35A U90G C95U C116G G152A,-4.12
4,A3G G94U U104C C129U U134A,≤ -4.2
5,A3U A24U A52U A60G G92U,-2.23
6,A3G G94A C114U,-2.39
7,A3G C18G G83C U144C,-2.47
8,A3C C85A,-2.55
9,A3U C27U G81A C96A,-3.11
10,A3G C8G A28G G46U G50A G67C G92C A107U U151G,≤ -4.2
11,A3G C96A A98U U102C,-2.26
12,A3C C10A U82C,-2.75
13,A3U A16U C93U U102C,-4.1
14,A3G C51G A52C G84U U101G A107G,≤ -4.2
15,A3G A16C A22G A73G G84U C123U G141U,≤ -4.2
16,A3G G50A,-1.39
17,A3U C85G C125A U144A,-3.46
18,A3U A39G G58C C96U,-3.39
19,A3C A29C A37U C57U C87U A142G U148C,≤ -4.2
20,A3C C8U C27U G68A C87U A91C C93G,≤ -4.2
21,A3C G34C C43U A91G,≤ -4.2
22,A3U C5A A19U G50A C57U,-3.13
23,A3G A17U G34A C118G U146A C149A,≤ -4.2
24,A3C C93G,≤ -4.2

row,Variant,polymerase ribozyme fitness (log ratio)
1,A3G A26C A60G,-2.26
2,A3U A30C C36A A60U G84A C85A G140C U146C,≤ -4.2
3,A3U C35U U77C G84C A89G C118U,≤ -4.2
4,A3G U53A C54U C95U,-1.48
5,A3U C87A,-3.25
6,A3C,-0.142
7,A3U,-0.0169
8,A3G,-0.234
9,A3G A39U G83U G84U C114U A119G,≤ -4.2
10,A3G G83U,-0.444
11,A3U A37U G42C C57U C95A A120G,≤ -4.2
12,A3G G11A C14A C95G C96A C103G,≤ -4.2
13,A3G A12G A52G G84A C116G,-1.71
14,A3G U56A C96A U134A,-3.26
15,A3U C5A C35U C87A,≤ -4.2
16,A3C U13C A28G C79G G80C G94A G141C,-4.17
17,A3G C57A C87A,≤ -4.2
18,A3C C5A G11A U45A U55A G80A C96A,≤ -4.2
19,A3U A12G U13G A19C G143U,-2.98
20,A3U A41G C85U G126U U144A,-1.79
21,A3G C27A G88C A122C A138U,≤ -4.2
22,A3U A21G C76G G86U A121U,≤ -4.2
23,A3G C35U C96A A106C A138C A142G,≤ -4.2
24,A3C C5A A20U C57A G62C U78G,≤ -4.2

row,Variant,polymerase ribozyme fitness (log ratio)
1,A3C U9G U33G A49U G74U U77G C93G U104A,≤ -4.2
2,A3C G11C C76U C93A,-3.68
3,A3G U6A U33G G50A C79U C129A,≤ -4.2
4,A3U C18G A22G G94C C131U,≤ -4.2
5,A3U A28U C57U C75G,≤ -4.2
6,A3U C32A U45G G50C U53A A60G G94A A98G G141U,≤ -4.2
7,A3G A39C,-3.26
8,A3G A37C G80U,-3.88
9,A3C C14G C103G A119G,≤ -4.2
10,A3U C54U U56A C95U C123U A150C G152U,-3.58
11,A3G A20G,-0.654
12,A3G A19G A28U C99U U130G,≤ -4.2
13,A3C A37G A91C A138C G140U,≤ -4.2
14,A3G C72U C85U U146C,-0.724
15,A3U C32U G59A G83C C129U A137C,≤ -4.2
16,A3U A41C C95U C99G C118A G136A U144G,-3.81
17,A3C U45A G59U G92U,≤ -4.2
18,A3C A20G C85A,-2.54
19,A3G C57A U90A A91C C93U G94C C132U G140U A142U,≤ -4.2
20,A3U A37C G84U,-2.36
21,A3G C54A C95U,-2.06
22,A3U C5U C35G A37G G86U A89G U104C C125G C131G,≤ -4.2
23,A3C U33C U44A U56G C85G,≤ -4.2
24,A3U A26U G42C G58U C87A C125U C131G C132G,≤ -4.2

row,Variant,polymerase ribozyme fitness (log ratio)
1,A3U C93U G141A U146G,-2.5
2,A3G G42C C69G C85G C118U C129U,≤ -4.2
3,A3G C51G U56A G92U C118U U145C,≤ -4.2
4,A3U C72U C79G G92U,≤ -4.2
5,A3U A30G A49C,≤ -4.2
6,A3G U9G C51U G67C G81C A89G A97G,≤ -4.2
7,A3U C85U,-0.254
8,A3C G83A G136C,-3.35
9,A3U A147C,-0.51
10,A3U C5G A21U A30G C93A U148A,≤ -4.2
11,A3G U55A C93A,-3.2
12,A3U C57A G71A A91G,≤ -4.2
13,A3C U31G C57G,-1.39
14,A3G C96U,-0.935
15,A3C A29U A91U,≤ -4.2
16,A3G U6A A40G C87A,≤ -4.2
17,A3U A17C C35U G59A C85A,-3.22
18,A3U A52C C75U G92U C103G U134G,≤ -4.2
19,A3C C5G C14G A24G A29U C32A U56G G86C U90G C116G A142C,≤ -4.2
20,A3C C18G A30G C116G,≤ -4.2
21,A3C A19G A21U U45A U82C G92C U139G U144A,≤ -4.2
22,A3U A30U G34U G58A C87G C95U C131G,≤ -4.2
23,A3U A16U C38U G65C G88A,≤ -4.2
24,A3U C5U C87U C96G C131A,≤ -4.2

row,Variant,polymerase ribozyme fitness (log ratio)
1,A3G G11C G34C A41G C87A,-4.04
2,A3U C57U C85A C118U C125A,-2.55
3,A3U A30G G86C C96U,-4
4,A3U C76A,-1.8
5,A3C A23U G50C U55A C105U C116U C125U,≤ -4.2
6,A3U C27U A49C G88C C96A C125G A142C,≤ -4.2
7,A3C A19U C57G G94A G141A,-2.02
8,A3U C5G A29U U31C A41C U55A U56C G84A C87U U111G U135A,≤ -4.2
9,A3U C18G A21U C57U C85U G94A A121U,-1.04
10,A3G C85A,-1.17
11,A3G A22G A24C A49U C76A C131G,≤ -4.2
12,A3U A16G C36A G92C G124C C131A G136U,≤ -4.2
13,A3U A37G G59U G86A C99A U130C G141U,≤ -4.2
14,A3U C10U G25C A52G G88C A97U G100C U144G,≤ -4.2
15,A3U A16C U45A C75A U82G G84A C118U,≤ -4.2
16,A3U A20C U31G C36A,≤ -4.2
17,A3C U9A A73U U144A C149G,≤ -4.2
18,A3U A29C G68C A73G,≤ -4.2
19,A3C U56A C69U A91U,≤ -4.2
20,A3C A22U G86A G92U,-2.91
